The nature of the data set: soluble on expression in E. coli; label from the status in PepcDB or PDB records.
As to “MRCIQLYVFYLISQLFTTGSAQKTFHYGVTGGEQFGRHEPSTRLSRFQSTPVSLNPLEDTLRVQQILKKLEDPGGLEIRRRSTSRRLHGVLTEPFGTPLVISGNSSEKKKKKPLKIKKRNGRRNPKSPEVNEYELQLAKQIEEDQLKFVEDEKNPMKYVVENGLLFRQSRYSPLARVEIPPVSGMSEISGISQRTSHSVGQTMQNPPRKRRRKQSYKLKNSKSSSESMFRTNVFRGNINRQIPAIPLPSPFSVAYGKPSFAIAREEDGKCYTNRFGYRCCDEALEALILKSYEKLRRKSNDLEDNLSKIASTLRRDSRQVFAKNLEAIVSTSNFGTSIPSDFSCKVELGPNRFVAQVFVPELGLDAKTTTRRHRIPYHELSREDLSDAADLVVSRNGIIVSKLL”, the “soluble on expression in E. coli” value is reported as “not soluble”.
As for “MPELPEVETVRRELEKRIVGQKIISIEATYPRMVLTGFEQLKKELTGKTIQGISRRGKYLIFEIGDDFRLISHLRMEGKYRLATLDAPREKHDHLTMKFADGQLIYADVRKFGTWELISTDQVLPYFLKKKIGPEPTYEDFDEKLFREKLRKSTKKIKPYLLEQTLVAGLGNIYVDEVLWLAKIHPEKETNQLIESSIHLLHDSIIEILQKAIKLGGSSIRTYSALGSTGKMQNELQVYGKTGEKCSRCGAEIQKIKVAGRGTHFCPVCQQK”, the entry is “soluble”.
On to “MGSDKIHHHHHHMTDSDLWIQVSDVRKHYAIGKSGLSDALVSAQSSANTGPGEKIAVDGISLTIRNGERLGIVGRNGAGKSTLLHMVAGLSAPTAGKIDVHGRVTAIMTLGLGLREHASGRENIYIDGEVQGKSRVEIDAVIDEIIEFAELGEFIDMPVRTYSTGMKSRLAFAMISCLEPEILIIDEALSAGDAKFSAKATRKIQEICAKGRIVILVSHSMASIQSMCNRCLWIDQGKIVMDGLPDQVCKAYIDAVRSEDEAKLLERFRDEASTRFSLDGWDVDALYVLQGDTATQRVLLEAGEDALIRTKIQVPTGCEEAQLVMSVTRLDGLVVTQRRIALDKYTEAGVARVQFAMRPLVLGQGVYRLEIAAELGQALVASRSMIFEVFVRQPPTGGVPMLLYPSEATASLLS”, for which the “soluble on expression in E. coli” value is on record as “not soluble”.
In the case of “MAGDPMETLLIQQTEKSNKFWKIVVKEKDYVVFYGKIGTAGSVKAKEFETEEECMNEANKLVASKRKKGYIDPLPGEDYIKEKTITEEEFWELLHRAKTKGEDQEEQIEWLTSHLAKRTVHEIVAFDTHMHSLLKDSYTSRLWAAAYIIMGGCSDDTFDYFRGWLLYQGKETYEACIEDPERLIPVLENLSEYDVPEIEELSLYFGFTVYAEKTGDEDDTYFTLYHVLSNEEFDDVDFEFDWNEDDEEGLKKVFPRLWEMYGEEPIEWLEHHHHHH” it was “soluble”; in that of “MAHHHHHHMSLKAKLDVYPVENYTQTSVDVSNGHAGVAGNKVNLGAGSAAPFRPPSAIEKLLSLKKRCEEEPCVHSVEGVLLVHLHRHPHILLMKQINSRTRDADGMRTVPPSNTNAEVTYRLPGGRCRRGEAEESCLLRKLGRHLLNEAKTPAGAAEVASTGNSDTVVDVGMTHTASKAGSCFRVGEVLATWYRPHFTPHMYPYVPAHIAAGSVREVRTIYLVHLEPTVYFTMVQESVELVAAPLFDLYENSSKYGPIVASLPVLLSRVLINYCSTEY”, “not soluble”; in that of “MIEPIWIDEQVALAIHERLISLHSGASGVRDKELLKSALARPLNLLAYDQQADVIHLAAAYTAGILQNHPFVDRNKRTGFVVGVLFLELNGYRFTAAEEDSAQAVIALAAGSLDEARFKLFLADNSIPV”, “not soluble”.
As for “MKKWMAGLFLAAAVLLCLMVPQQIQGASSYDKVLYFPLSRYPETGSHIRDAIAEGHPDICTIDRDGADKRREESLKGIPTKPGYDRDEWPMAVCEEGGAGADVRYVTPSDNRGAGSWVGNQMSSYPDGTRVLFIVQLEHHHHHH”, the “soluble on expression in E. coli” value is recorded as “soluble”.
For the sequence “MASIKKVYRGMKNGAETINDDLEAINSELTSGGNVVHKTGDETIAGKKTFTGNVEVNGSLTLPVQTLTVEAGNGLQLQLTKKNNDLVIVRFFGSVSNIQKGWNMSGTWVDRPFRPAAVQSLVGHFAGRDTSFHIDINPNGSITWWGANIDKTPIATRGNGSYFIK”, the “soluble on expression in E. coli” value was “soluble”.
In the case of “MATGVIRGAELSPSYIIEEILGLYQNIVVLSNEEIVYGLSDRNRELFQELEYLVSLEVEDSVVQDILQKKELEPAFTEIKRFRNLYTVRLETEHAKEILSSDSPWASLEMFSFYGNYLKLVRTEYEGLRLSSGDTVFFLGSGPLPLTLIVFFRLYGVKSTGIEKDSFRANLSKKVLEKLGLSSVIKIVNGNHFSLSRKDLSLSPDTGVKALMIAAQAEPKKEIFEHLLEVMPIGGRISCRIYEKGLRKLLSGNCLFDLPEGFVEQERVQPQPPVYNTVIFFEKKRLEHHHHHH” it was “not soluble”; in that of “MSLRIGVAGVGKLGEFHTNLLKQIAAEASDVEFSGVFDLNPERLQEIGKKYGVACFSTLEELAASCDAAVIATTTSSHYAIARQLLEARLHLFIEKPITATLEEADKLIRIEQEKGLTIQVGHIERFNPALLAVEPYIGEPMYIQAERLSGFSRRVTDVSVVLDLMIHDIDLVLSLIKSDIRSIAASGVKVFSNELDMATARIEFENGAIANVTASRLSRSKLRKMRFFTRNPKSYASLDFTSGKSEVFRLVPPDQLSSKNPIKNFATKKILEQFGEIQESLKEMALDYVSPDVPKINALKEELEQFIDAIRKGKPAKVTSEEGRRALMVAGKITDEIRNNTADLDEGHHHHHH”, “soluble”.
In the case of “MIMTNINTACVKNNASYQLNNALPNKETISSNFCERLEQWGNKSVNNGEERAIAVERIKEAYNSNMASLDLSYLDLSELPPIPSTVNTLNLENNCLTCLDLADNASLVNINLSVNKINTITFPKEPKLENIYINHNNLESLDLKNQHSLVNLEAQNNSLKKLEHHHHHH”, the “soluble on expression in E. coli” value is “not soluble”.
As for “MGSDKIHHHHHHMPLLEIKNLTKIFTIGSIFSRTRIVAVDNVNFDINEAEIFTLAGESGCGKTTTAKIILGFEEPTSGEIIYKGRKIDRVHQNEKERRELLKEIQAVFQNPFSTFNPLRKVDRYFYETLFNLGIADTKKKAEEIIKEKLSAVGISFEEFSEKYPSEFSGGQLQRISIARALLTNPSLLVADEPVSMVDASLRMSIVNLFKDLKEQYGVSVLYITHDLTTAYYVSDRIAVMFRGNIVELGPAEKVLMEPKHPYTQLLRESVPEPDPKKKWDIRIKLSETEQAEYLRQGCKFAGRCPKAMDICRKEPPPYFEVDGVQVKCWLYR”, the entry is “not soluble”; as for “MKVALYAGTYVKDKDGAVRSIYQLVSSMIKNGHQVVVWTPDFTPEANASVPVNLTPSVPIPLYPDYKLGFYNAVTERQLDEFAPDIVHISTPDIVGRKFLHYAKRKGLPVGSAYHTDFPSYLSYYRLGFAEPAVWRFLRKFYNACDVTLAPNESVRERLTGKGIERVELWSRGIDKELFDPSRRSAKLRRAWDAEGRTVIIYAGRFVLYKDIEVVMSLYQRFADEGLGDRVRFVMIGSGPEEAQMRARMPEAVFTGYLTGTTLPEAYASGDLFLFPSTTEAFCNVTLEALATGLPAVVSDVGGCQELVERSGGGFVAKAGDVGDFYACCTKLMQDGELFRSMRERGLAFAKDKSWAAVNGKLIDRYLELIAAKARRLEHHHHHH”, “not soluble”; as for “MGSDKIHHHHHHMKIVVTKFGGSSLADSNQFKKVKGIIDSDANRKYIIPSAPGKRTNKDYKITDLLYLCNAHVKNGIPFDDVFKLISQRYTEIVSELNIDMDIAYYLEKVKKNIENGASSDYAASRGEYLNGVILAKYLNAEFIDAAEVIFFDKSGCFDEKKSYEKIKEKVLSCNKAVIPGFYGSSFNGDVKTFSRGGSDVTGSIISAGVNADLYENWTDVSGFLMADPRIVENPKTISKISYKELRELSYMGATVLHEEAIFPVKDSGIPINIKNTNKPSDPGTLILSDTHKEINLGTITGIAGKKNFTVIAIEKALLNSEVGFCRKILSILEMYGVSFEHMPSGVDSVSLVIEDCKLDGKCDKIIEEIKKQCNPDSIEIHPNMALVATVGTGMAKTKGIANKIFTALSKENVNIRMIDQGSSEINVIVGVETVDFEKAVKSIYNAFN”, “not soluble”.
As for “MAMNYLEAFPKELREYYKNLFGKEEANKIMKKLREPVEHYYIRVNTLKISREKLIGELKKEGLKPLRSPYLPEGLYFVREGPNFSDDFEPKLPVVVANKYAAESVYQGAMLYAPGVLKADKNIKEGDEVQIRDPKGLLVGIGIARMDYKEMTEATRGLAVEVTLPKFKLPSLSELKAFEKGYFYPQGLPSMVTARVLEPKEDDVIIDMAAAPGGKTTHIAQLLENKGEIIAIDKSKNRLRKMEENIKRLGVKNVKLVQMDARKLPDLGIKADKILLDAPCTALGVRPKLWEERTLKHIEATARYQRAFIWAAIKSLRRGGVLVYSTCTLSYEENEGNVKFMIRKGMKLEEQSIFIGSPGIGMNKVQRFYPHKHLTQGFFIAKLRKVKDI”, the entry is “soluble”; as for “MSLVEMKFLTDRMLGRLTRWLRISGYDTVSVSELEFDEEEDEFMLRNLRDRILLTKDRELYRKSVKEGRKAILIRSDSLEGQMRELMERGVKFQIVMDRCSLCNTPLRKPSREEAMEVIEREKLSEDMLEFELWYCEKCRKLYWMGGHWKNMTRFLRKFESEGHHHHHH”, “soluble”.
As for “MGSDKIHHHHHHMKQEVKGVQGQEYEIGLTVGDNRSDIFTFVISPESQIRKWEYVYIKAGETNLLGRIEDLLSKSDLLNDRMDYESVKKYTTSNIKDNVDICVVKIIGAVKDGIISRSRYLIRPGQPVFRATKEMLESIFKFDDQRSLEIGYLADQPDVKIFANINGLRRHLSIIAQTGAGKSHTAGVLMEELLKKGASIIVLDPHADYVLMKNSDKAIYRDNIKVFRTPMSTGRYTAKLGKVDEFTIKFQDLNDEEVREIMGIHENFVNQSKIVKDVMEKLTGRKDVDEFIQKSEQIDTEKRIAARIKYLKKIKAIFGDKTTDVSEYLAPSRMSVIDLSGLDQSLANYFAYKVISQAYDAKVTGSFEYPVFLFIEEAHNFAPPMKVKGSGVSQMLYDTIKKIAAEGRKFGIFLVIITQRPGKIDQDVLSQCNSQIILRITNPSDQKAILESSENISESLMSDLPSLDVGEAIIVGEIVKMPVIAKIRQRETEEGGLDVDIVEMLQKARMEAEKRNDPRAIVENVKKLME”, the entry is “not soluble”; as for “GMNKKTQLLEVIAALPEELVDQALNYVQMLQNPIQITPGVCGGQARIRNTRIPVWTLVAYRQQGAPDKELLANYPGLTAEDLSAAWHYYEQNPEQIDREIAQDDLV”, “soluble”; as for “MSLKQLFLIIGAPGSGKTTDAELIAKNNSETIAHFSTGDLLRAESAKKTERGLLIEKFTSQGELVPLEIVVETILSAIKSSGKGIILIDGYPRSVEQMQALDKELNAQNEVILKSVIEVEVSENTAKERVLGRSRGADDNEKVFHNRMRVFLDPLGEIQNFYKNKKVYKAIDGERSIEEIVGEMQEYILSFGNEGHHHHHH”, “soluble”.
For the sequence “MGRIISSYIFPHPPLIVPEIGKGDEKGAIKTIEACEKAAEQIRKEKPSTIILTTSHAPLFEDYIFINDHKTLKGNFSRFGARKVELGFENNLKMVESIIEFAKKEGFDAGGISEGIGRRYGISGELDHGALVPLYYISRVYSDFKLVHVAMSTLTLEEHYKFGMCIGEAVRNSDEDVVFVASGDLAHRLTSDGPYGYNKHAPEFDELLVKSIEKDDIDRILDIDDKLRDEAAECGLRSFVIMLGALDGYSVVPEVYSYEGPFGVGYMVARIGVGAMDSSRRIIENRRNKRKKSTDPYVSLAKRALEAYVTEGRVLDDYSGLPEEMLNSRAGTFVSIKKKGELRGCIGTIGPTRKNIASEIVHNAISAGTSDPRFYPVKPYELDELEYSVDVLMEPEEINSMDELDVVKYGVIVRAGRRTGLLLPNLENVNTVEQQVSIALQKAGISPNEKYTMERFEVIRHK”, the “soluble on expression in E. coli” value is given as “not soluble”.
As to “MEKKIEKVRQFYTALAQGDFETVGALLSDDLVWHQPGQGALSGTYNGKQNVFAHLERMAQLSNGTFAIDQVDYVTDNGNLVAAAIAFAVSANGHSIEMKGVDLFNFENGFIKKVWLFSERIEEESRFWTALAQGC”, the “soluble on expression in E. coli” value was “not soluble”.

Source of the values: the DeepSol protein solubility set.
